Reference: patent US11078246B2, “Peptides binding to Bfl-1” (Dana-Farber Cancer Institute, Inc., priority 2015, dated 2021)

Assays:
Type in all cases: binding
tBID/FLAG-MCL-1 = biological target: T1, tBID/FLAG-MCL-1 (Homo sapiens, UniProt Q07820); assay: Competition with tBID in 293T lysates (FLAG immunoprecipitation); conditions: 5 μM biotinylated peptide, non-covalent
T1 construct: expressed in transfected cells; host or cells: 293T
Experimental: (§1) 293T cells were maintained in DMEM containing 10% FBS and penicillin/streptomycin, and transfections performed with 2 μg pCMV plasmid containing HA-BFL-1ΔC C4S/C19S using X-tremeGENE 9 (Roche). For lysate experiments, cells were trypsinized 24 hours post-transfection, washed with PBS, and lysed by incubation with 1% CHAPS lysis buffer (150 mM NaCl, 50 mM Tris pH 7.4, 100 mM DTT). Protein concentration of the soluble fraction was measured using a BCA kit according to manufacturer's instructions (Thermo Scientific). […] Samples were then boiled in LDS buffer and subjected to western analysis using 1:1000 dilutions of HA (Sigma-Aldrich. #12CA5) and biotin (Abcam, #53494) antibodies. To evaluate the capacity of biotinylated SAHBs to compete with tBID for interactions with BFL-1 and MCL-1, 293T cells were transfected with either HA-BFL-1ΔC C4S/C19S or FLAG-MCL-1 in the p3XFLAG-CMV-10 vector (Sigma) as above. After 24 h, cells were trypsinized, washed with PBS, lysed in 1% CHAPS buffer, and the supernatant collected for protein concentration determination by BCA kit. […] The mixtures were then subjected to HA or FLAG (Sigma-Aldrich, F7425) immunoprecipitation, followed by western analysis using 1:1000 dilutions of HA, FLAG, biotin, and BID (Santa Cruz sc-11423) antibodies. […] Cells were harvested and lysed as above, and incubated overnight with anti-HA agarose beads (Pierce). […]

tBID/HA-BFL-1ΔC C4S/C19S = biological target: T2, tBID/HA-BFL-1ΔC C4S/C19S (Homo sapiens, UniProt Q16548, C19S/C4S); assay: Competition with tBID in 293T lysates (HA immunoprecipitation); conditions: 5 μM biotinylated peptide, 0.25 μM tBID, 6 h
T2 construct: cDNA encoding BFL-1ΔC (aa 1-153) was cloned into the pET19b expression vector; expressed in transfected cells; host or cells: 293T
T2 sequence (Q16548 1-153 C4S/C19S): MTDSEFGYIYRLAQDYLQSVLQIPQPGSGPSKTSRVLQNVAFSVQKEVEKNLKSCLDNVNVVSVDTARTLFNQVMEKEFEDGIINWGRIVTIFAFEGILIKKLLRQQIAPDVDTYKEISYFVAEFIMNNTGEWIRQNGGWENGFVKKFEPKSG
Experimental: Protein concentration of the soluble fraction was measured using a BCA kit according to manufacturer's instructions (Thermo Scientific). […] After 24 h, cells were trypsinized, washed with PBS, lysed in 1% CHAPS buffer, and the supernatant collected for protein concentration determination by BCA kit. […] Cells were harvested and lysed as above, and incubated overnight with anti-HA agarose beads (Pierce). The beads were washed 3 times with lysis buffer, eluted by boiling in LDS buffer, and subjected to western analysis with HA and biotin antibodies. […] Biotin capture was accomplished by incubating the mixture with high-capacity SA agarose (Thermo Scientific) for 2 h at 4° C., followed by centrifugation and washing the pelleted beads with 3×1 mL lysis buffer.

MCL-1 = biological target: T3, MCL-1 (Homo sapiens, UniProt Q07820); assay: SA pull-down from A375P lysates, MCL-1 western; conditions: A375P lysate, biotinylated peptides
T3 construct: we incubated A375P lysates with the corresponding biotinylated BIM SAHBs; endogenous in cells; host or cells: A375P melanoma cell lysate
Experimental: as §1

T1 sequence (Q07820 whole entry): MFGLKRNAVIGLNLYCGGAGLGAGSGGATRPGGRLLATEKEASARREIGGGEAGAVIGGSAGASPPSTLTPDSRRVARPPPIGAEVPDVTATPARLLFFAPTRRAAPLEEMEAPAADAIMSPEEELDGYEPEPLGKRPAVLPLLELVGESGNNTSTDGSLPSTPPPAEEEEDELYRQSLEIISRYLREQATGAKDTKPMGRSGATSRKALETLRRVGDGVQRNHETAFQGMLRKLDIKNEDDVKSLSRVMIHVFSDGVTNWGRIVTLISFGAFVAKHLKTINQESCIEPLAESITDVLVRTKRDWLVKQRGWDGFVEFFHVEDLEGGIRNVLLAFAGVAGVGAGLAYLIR

**Q.** “BIM SAHBA: stapled BIM BH3 peptide (aa 147-166) lacking the acrylamide-based warhead” was tested. Which “competition with tBID for FLAG-MCL-1” value (tBID/FLAG-MCL-1) did it give?
**A.** equally effective

**Q.** And the “competition with tBID for HA-BFL-1 binding” value (tBID/HA-BFL-1ΔC C4S/C19S)?
**A.** incapable of competing with tBID

**Q.** What about the “binding to MCL-1” value (MCL-1) of the same substance?
**A.** equivalent binding
